Assay [1] concerns the target T1, human Claudin 18.2 protein (human).
T1 construct: Expressed on transfected cells (CHO-hCLDN18.2, HEK293-hCLDN18.2, 3T3-hCLDN18.2) from pCMV3-hCLDN18.2; also called human CLDN18.2; hCLDN18.2
Description: FACS cell surface binding analysis.

Assay [2] addresses T1, human Claudin 18.2 protein. Put plainly: FACS on cells expressing CLDN18.2 versus cells expressing CLDN18.1 (reference: binding to CLDN18.1).
Description: FACS cell binding assays. […] Cells were fixed with 1% paraformaldehyde (PFA) prior to analysis on FACSCalibur cytometer (BD biosciences, Franklin Lakes, N.J., U.S.). Controls were cells with secondary antibody only, for which the mean fluorescent intensity (MFI) was set to 5.
Assay [3] has as its target T1, human Claudin 18.2 protein. Description: cell-based or functional assay.

T1 sequence (chain, as listed by the source limits assumed): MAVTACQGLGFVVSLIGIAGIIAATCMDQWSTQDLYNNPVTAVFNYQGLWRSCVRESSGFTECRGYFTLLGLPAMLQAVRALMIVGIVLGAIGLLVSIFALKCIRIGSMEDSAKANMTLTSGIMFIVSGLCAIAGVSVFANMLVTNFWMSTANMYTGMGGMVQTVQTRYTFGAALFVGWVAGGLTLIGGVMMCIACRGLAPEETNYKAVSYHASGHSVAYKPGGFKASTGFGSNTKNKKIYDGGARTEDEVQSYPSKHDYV

B1: 32G4 mouse chimeric antibody (murine VH/VL on human IgG1 constant regions) (antibody, V domains shown)
VH: EVQLQQSGPELENPGASVKIFCKASGYSSTGYNINWVKQSSGKSLEWIGNINPYYGGITYNQKFKGKATLTVDKSSSTAYVQLKSLTSEDSAVYYCARDYYGNSFAYWGQGTLVTVST
VL: DIVMTQSPSSLTVTAGEKVTMSCKSSQSLLNSGNQKNYLTWYQQNPGQPPKLLIFWASTRESGVPDRFTGSGSGTDFTLTISSVQAEDLAVYYCQNNYYFPYTFGGGTKLEIR
notes: also called murine clone 32G4; mouse 32G4 chimeric control antibody
What is called EC50 is the concentration that produces a half-maximal response. For the molecule B1, the EC50 in assay [1] turned out to be 0.502 nM. For the same molecule, the “fold stronger binding to CLDN18.2 than to CLDN18.1” value (shortened to “fold stronger binding”) in assay [2] is ≥ 1000 times.

B2: 47D10 mouse chimeric antibody (murine VH/VL on human IgG1 constant regions) (antibody, V domains shown)
VH: QVMLVESGGGLVKPGGSLKLSCAASGFAFSSSAMSWIRQTPEKRLEWVATMTVGYIYTYYLDTVKGRFIISRDNANNTLYLQMSSLRSEDSAMYYCARQGYGNAMDYWGQGTSVTVSS
VL: DIVMTQSPSSLTVTAGEKVTMSCKSSQSLLNSGNQKNYLTWYQQKPGQPPKLLIYWASTRESGVPYRFTGSGSGTDFTLTISSVEAEDLAVYYCQNNYIYPLTFGAGTKLELK
notes: also called murine clone 47D10; mouse 47D10 chimeric control antibody
As for B2, the EC50 in assay [1] worked out at 1.97 nM. Moreover, in assay [2], the “fold stronger binding” value was ≥ 1000 times.

B3: 15B10 mouse chimeric antibody (murine VH/VL on human IgG1 constant regions) (antibody, V domains shown)
VH: QVQLQQSGAELVRPGTSVKVSCKASGYAFSNYLIDWVKQRPGQGLEWIGVIHPGSGTNYNENFKGKATLTADKSSSTAYMQLSSLTSDDSAVYFCSRRWYGNSLIYWGQGTLVTVSA
VL: DIVMTQSPSSLTVTAGEKVTMTCKSSQSLLNSGNQRNYLTWYQQKPGQPPKLLIYWASTRESGVPDRFTGSGSGTDFTLTISSVQAEDLAVYYCQNDYFYPFTFGSGTKLEIK
notes: also called murine clone 15B10
As for B3, the half-maximal effective concentration (EC50) in assay [1] came out at 2.2 nM. Moreover, the “fold stronger binding” value in assay [2] is ≥ 1000 times.

B4: 32G4-huIgG1-V8×OKT3 (anti-CLDN18.2×CD3) bispecific antibody (bispecific antibody)
heavy: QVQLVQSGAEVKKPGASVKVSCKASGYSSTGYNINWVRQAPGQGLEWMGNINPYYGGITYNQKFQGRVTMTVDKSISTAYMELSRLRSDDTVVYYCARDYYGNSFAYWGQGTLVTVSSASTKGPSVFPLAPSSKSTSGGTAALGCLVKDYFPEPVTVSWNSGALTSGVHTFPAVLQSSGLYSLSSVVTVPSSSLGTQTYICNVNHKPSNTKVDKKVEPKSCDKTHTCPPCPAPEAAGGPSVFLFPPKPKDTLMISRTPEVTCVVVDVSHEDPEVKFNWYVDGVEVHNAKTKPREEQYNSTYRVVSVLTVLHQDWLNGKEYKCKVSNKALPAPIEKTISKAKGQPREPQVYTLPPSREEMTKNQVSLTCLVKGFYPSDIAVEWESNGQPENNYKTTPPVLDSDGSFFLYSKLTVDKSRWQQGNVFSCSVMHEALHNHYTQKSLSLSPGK
light: DIQMTQSPSSLSASVGDRVTITCRSSQSLLNSGNQKNYLTWYQQKPGKAPKLLIFWASTLESGVPSRFSGSGSGTDFTLTISSLQPEDFATYYCQNNYYFPYTFGQGTKLEIKRTVAAPSVFIFPPSDEQLKSGTASVVCLLNNFYPREAKVQWKVDNALQSGNSQESVTEQDSKDSTYSLSSTLTLSKADYEKHKVYACEVTHQGLSSPVTKSFNRGECTSGGGGSGGGGSGGGGSQVQLVQSGGGVVQPGRSLRLSCKASGYTFTRYTMHWVRQAPGKGLEWIGYINPSRGYTNYNQKFKDRFTISRDNSKNTAFLQMDSLRPEDTGVYFCARYYDDHYSLDYWGQGTPVTVSSGGGGSGGGGSGGGGSGGGGSGGGGSGGGGSDIQMTQSPSSLSASVGDRVTITCSASSSVSYMNWYQQTPGKAPKRWIYDTSKLASGVPSRFSGSGSGTDYTFTISSLQPEDIATYYCQQWSSNPFTFGQGTKLQIT
B4: the “TDCC activity (T cell dependent cellular cytotoxicity; CellTiter-Glo cell viability, PBMCs as effectors, 48 hours)” value (“TDCC activity” for short) in assay [3] amounted to 1 pM.

B5: 32G4-huIgG1-V9 (antibody, V domains shown)
VH: EVQLVQSGSELKKPGASVKVSCKASGYSSTGYNINWVRQAPGQGLEWIGNINPYYGGITYNQGFTGRFVLSVDKSSSTAYLQISSLKAEDTAVYYCARDYYGNSFAYWGQGTLVTVSS
VL: DIVMTQSPDSLAVSLGERATINCKSSQSLLNSGNQKNYLTWYQQKPGQPPKLLIFWASTRESGVPDRFSGSGSGTDFTLTISSLQAEDVAVYYCQNNYYFPYTFGQGTKLEIKR
notes: Humanized full IgG1 antibody; also called humanized 32G4 variant V9; 32G4-V9
B5 came in with a 50% effective concentration (EC50) in assay [1] of 0.129 nM.

B6: 31A6 mouse chimeric antibody (murine VH/VL on human IgG1 constant regions) (antibody, V domains shown)
VH: QTYLQQSGAELVRSGASVKMSCKASGYTFASYNIHWVKQTPGQGLEWIGYIYPGKDGSHYNQKFRDKATLTADTSSSTAYMQISSLTSEDSAVYFCARGGYYGNSFDYWGQGTLVTVSA
VL: DIVMSQSPSSLTVTTGEKVTMTCKSSQSLLNSGNLKNYLAWYQQKPGQPPKLLIYWASIRESGVPDRFTGSGSGTDFTLTIISVQAEDLAIYYCQNAYTFPFTLGGGTKLEIK
notes: also called murine clone 31A6
B6: the EC50 in assay [1] turned out to be 10.9 nM. Further, the “fold stronger binding” value in assay [2] is ≥ 1000 times.

B7: 47D10-huIgG1-V6 (antibody, V domains shown)
VH: QVQLVESGGGLVKPGGSLRLSCAASGFAFSSSAMSWIRQAPGKGLEWVATMTVGYIYTYYLDSVKGRFTISRDNAKNSLYLQMNSLRAEDTAVYYCARQGYGNAMDYWGQGTLVTVSS
VL: DIVMTQSPLSLPVTPGEPASISCRSSQSLLNSGNQKNYLTWYLQKPGQSPQLLIYWASTRESGVPDRFSGSGSGTDFTLKISRVEAEDVGVYYCQNNYIYPLTFGQGTKLEIKR
notes: Humanized full IgG1 antibody; also called humanized 47D10 variant V6; 47D10-V6
Molecule B7 returned an EC50 in assay [1] of 0.22 nM.

B8: 47D10-huIgG1-V7 (antibody, V domains shown)
VH: QVQLVESGGGLVKPGGSLRLSCAASGFAFSSSAMSWIRQAPGKGLEWVATMTVGYIYTYYLDSVKGRFTISRDNAKNSLYLQMNSLRAEDTAVYYCARQGYGNAMDYWGQGTLVTVSS
VL: DIVMTQSPGTLSLSPGERATLSCRSSQSLLNSGNQKNYLTWYQQKPGQAPRLLIYWASTRESGIPDRFSGSGSGTDFTLTISRLEPEDFAVYYCQNNYIYPLTFGQGTKLEIKR
notes: Humanized full IgG1 antibody; also called humanized 47D10 variant V7; 47D10-V7
B8 registered an EC50 in assay [1] of 0.361 nM.

B9: 47D10-huIgG1-V7×OKT3 (anti-CLDN18.2×CD3) bispecific antibody (bispecific antibody)
heavy: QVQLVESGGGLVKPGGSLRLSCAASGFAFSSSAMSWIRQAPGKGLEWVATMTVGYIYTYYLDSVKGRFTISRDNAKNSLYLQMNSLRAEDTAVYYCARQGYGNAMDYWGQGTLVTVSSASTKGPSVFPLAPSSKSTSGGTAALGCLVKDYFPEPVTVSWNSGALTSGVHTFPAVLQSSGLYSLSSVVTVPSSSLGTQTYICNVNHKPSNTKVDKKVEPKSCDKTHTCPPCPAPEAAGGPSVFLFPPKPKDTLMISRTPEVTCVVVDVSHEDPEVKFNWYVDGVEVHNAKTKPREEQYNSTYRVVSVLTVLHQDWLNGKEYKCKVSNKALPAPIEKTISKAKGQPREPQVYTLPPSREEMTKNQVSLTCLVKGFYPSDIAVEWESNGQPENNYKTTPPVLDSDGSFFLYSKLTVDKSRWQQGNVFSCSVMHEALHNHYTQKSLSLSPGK
light: DIVMTQSPGTLSLSPGERATLSCRSSQSLLNSGNQKNYLTWYQQKPGQAPRLLIYWASTRESGIPDRFSGSGSGTDFTLTISRLEPEDFAVYYCQNNYIYPLTFGQGTKLEIKRTVAAPSVFIFPPSDEQLKSGTASVVCLLNNFYPREAKVQWKVDNALQSGNSQESVTEQDSKDSTYSLSSTLTLSKADYEKHKVYACEVTHQGLSSPVTKSFNRGECTSGGGGSGGGGSGGGGSQVQLVQSGGGVVQPGRSLRLSCKASGYTFTRYTMHWVRQAPGKGLEWIGYINPSRGYTNYNQKFKDRFTISRDNSKNTAFLQMDSLRPEDTGVYFCARYYDDHYSLDYWGQGTPVTVSSGGGGSGGGGSGGGGSGGGGSGGGGSGGGGSDIQMTQSPSSLSASVGDRVTITCSASSSVSYMNWYQQTPGKAPKRWIYDTSKLASGVPSRFSGSGSGTDYTFTISSLQPEDIATYYCQQWSSNPFTFGQGTKLQIT
As for B9, the “TDCC activity” value in assay [3] is 1 pM.

B10: 47D10-huIgG1-V6×OKT3 (anti-CLDN18.2×CD3) bispecific antibody (bispecific antibody)
heavy: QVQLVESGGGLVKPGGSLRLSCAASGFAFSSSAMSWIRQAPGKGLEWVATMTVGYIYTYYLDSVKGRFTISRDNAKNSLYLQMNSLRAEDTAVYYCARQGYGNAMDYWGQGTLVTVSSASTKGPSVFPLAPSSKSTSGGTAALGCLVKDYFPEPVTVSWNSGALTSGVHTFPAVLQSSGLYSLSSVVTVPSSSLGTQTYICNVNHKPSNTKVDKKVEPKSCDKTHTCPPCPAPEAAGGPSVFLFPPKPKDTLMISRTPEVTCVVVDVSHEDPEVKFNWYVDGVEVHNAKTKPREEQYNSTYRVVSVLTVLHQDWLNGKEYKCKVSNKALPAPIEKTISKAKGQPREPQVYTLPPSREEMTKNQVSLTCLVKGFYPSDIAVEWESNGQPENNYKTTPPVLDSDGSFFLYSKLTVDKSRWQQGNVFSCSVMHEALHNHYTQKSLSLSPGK
light: DIVMTQSPLSLPVTPGEPASISCRSSQSLLNSGNQKNYLTWYLQKPGQSPQLLIYWASTRESGVPDRFSGSGSGTDFTLKISRVEAEDVGVYYCQNNYIYPLTFGQGTKLEIKRTVAAPSVFIFPPSDEQLKSGTASVVCLLNNFYPREAKVQWKVDNALQSGNSQESVTEQDSKDSTYSLSSTLTLSKADYEKHKVYACEVTHQGLSSPVTKSFNRGECTSGGGGSGGGGSGGGGSQVQLVQSGGGVVQPGRSLRLSCKASGYTFTRYTMHWVRQAPGKGLEWIGYINPSRGYTNYNQKFKDRFTISRDNSKNTAFLQMDSLRPEDTGVYFCARYYDDHYSLDYWGQGTPVTVSSGGGGSGGGGSGGGGSGGGGSGGGGSGGGGSDIQMTQSPSSLSASVGDRVTITCSASSSVSYMNWYQQTPGKAPKRWIYDTSKLASGVPSRFSGSGSGTDYTFTISSLQPEDIATYYCQQWSSNPFTFGQGTKLQIT
B10: in assay [3], the “TDCC activity” value was 1 pM.

B11: 29G4 mouse chimeric antibody (murine VH/VL on human IgG1 constant regions) (antibody, V domains shown)
VH: QVQLKESGPGLVAPSQTLSITCTVSGFSLTNYGVQWVRQPPGKGLEWLGVIWAGGNTNYNSALLSRLSISKDTSKSQVFLKMNSLKTDDTAMYYCARGGYGNSCDYWGQGTLVTVSA
VL: DIVMTQSPSSLTVTAGEKVTMNCKSSQSLLNSGNQKNYLAWYRQKPGQPPKLLIYWASTRGSGVPDRFTGSGSGTDFALTISSVQAEDLAVYYCQNDYFYPLTFGAGTKLDLK
notes: also called murine clone 29G4
As to B11, the midpoint of the response in assay [1], the EC50, lay at 1.26 nM. In addition, the “fold stronger binding” value in assay [2] is ≥ 1000 times.

B12: 32G4-huIgG1-V8 (antibody, V domains shown)
VH: QVQLVQSGAEVKKPGASVKVSCKASGYSSTGYNINWVRQAPGQGLEWMGNINPYYGGITYNQKFQGRVTMTVDKSISTAYMELSRLRSDDTVVYYCARDYYGNSFAYWGQGTLVTVSS
VL: DIQMTQSPSSLSASVGDRVTITCRSSQSLLNSGNQKNYLTWYQQKPGKAPKLLIFWASTLESGVPSRFSGSGSGTDFTLTISSLQPEDFATYYCQNNYYFPYTFGQGTKLEIKR
notes: Humanized full IgG1 antibody; also called humanized 32G4 variant V8; 32G4-V8
As for B12, a half-maximal response in assay [1] (EC50) required 0.147 nM.

For the origin of these results see US20230279152A1 (published 2023).
